According to patent US12583895B2, “Polypeptides for restoring endothelial function and methods of use thereof” (Vanderbilt University, priority 2019, dated 2026):
“Also recorded” adds a separate entry of the source. Non-standard residues stand in square brackets, D forms with d. No end group written: not given here. pS = N[C@@H](COP(=O)(O)O)C(=O)O

Experiments:
[1] = molecular target: FGFR1 (Homo sapiens, UniProt P11362); test: SelectScreen kinase profiling; type: biochemical; conditions: NiPp 100 μM; kinases inhibited at >40% are listed
Experimental: (§1) Kinase profiling. NiPp was dissolved in DMSO, screened at a single concentration of 100 μM using in vitro kinase assays (SelectScreen Kinase Profiling Service; ThermoFisher Scientific, Madison WI) including the Z'LYTE and Adapta kinase activity assays and the LanthaScreen Eu Kinase Binding Assay). Candidate interactions were predicted using STRING Version 11 (www.string-db-org) with the human database at confidence=0.7.
(§2) As injury leads to increased p38 MAPK phosphorylation and decreased Niban phosphorylation, one of the mechanisms by which NiPp restores function after endothelial injury can be kinase inhibition. A kinase profiling was performed using three different profiling platforms that measure activity and kinase/substrate binding. Kinases of which activity or substrate binding were inhibited by NiPp (100 μM) at >40% are listed and shown in a kinase dendrogram (FIGS. 14A, 14B, 19A and 19B).
(§3) The top two candidate kinase targets of NiPp were mitogen- and stress-activated kinase 1 (MSK1; also known as RPS6KA5) and p38 MAPKα (MAPK14), which were inhibited by 66% and 61%, respectively. MSK1 is an AGC kinase of the RSK family that is phosphorylated by ERK and p38 MAPK in response to cellular stress. Other kinases inhibited by the NiPp include CKD18 of the CMGC kinase family), FGFR1 of the TK family, and the PIK3R3 kinase (FIGS. 19A and 19B).

[2] = molecular target: PIK3R3 kinase (Homo sapiens, UniProt Q92569); test: SelectScreen kinase profiling; type: biochemical; conditions: NiPp 100 μM; kinases inhibited at >40% are listed
Experimental: as §1, §2, §3

[3] = molecular target: CKD18 (Homo sapiens, UniProt Q07002); test: SelectScreen kinase profiling; type: biochemical; conditions: NiPp 100 μM; kinases inhibited at >40% are listed
Experimental: as §1, §2, §3

[4] = system: rat aorta; test: Endothelial-dependent relaxation of rat aorta after acidosis (normal saline) injury; type: cell-based; conditions: NiPp 500 μM 30 min pretreatment in PL, then NS with NiPp 500 μM 2 h
Experimental: Freshly isolated rat aorta (RA) was cut into rings and then pretreated in the absence or presence of NiPp (500 μM) in PL for 30 min. Tissue rings were then transferred to normal saline (NS) to induce injury in the absence or presence of NiPp (500 μM) and continued incubation for 2 h at room temperature. After treatments, RA were suspended in the muscle bath, contracted with PE and then treated with escalating doses of carbachol (CCH; 10^−8 to 10^−5 M). The percent relaxation was determined as a change to the maximal PE-induced contraction. n=5-7 rats. *p<0.05 in two-way ANOVA with Tukey post-test. NiPp restores NS-induced endothelial dysfunction in RA.
Tissue rings were then transferred to NS and continued incubation in the absence or presence of NiPp (500 μM) for 2 h at room temperature. Control rings (Ctrl) were incubated in PL for 2.5 h. […] The percent relaxation was determined as a change to the maximal PE-induced contraction. […] Data are expressed as mean±SD. […]
This produced the maximal force tension relationship as previously described. […] Contractile responses were defined by stress, calculated using force generated by tissues as follows: stress (×10^5 N/m^2)=force (g)×0.0987/area, where area=wet weight (mg)/at maximal length (mm)]/1.055.
Relaxation was calculated as percent change in stress compared to the maximal PE-induced contraction (set as 100%). […]

Sequence of FGFR1 (P11362 22-822): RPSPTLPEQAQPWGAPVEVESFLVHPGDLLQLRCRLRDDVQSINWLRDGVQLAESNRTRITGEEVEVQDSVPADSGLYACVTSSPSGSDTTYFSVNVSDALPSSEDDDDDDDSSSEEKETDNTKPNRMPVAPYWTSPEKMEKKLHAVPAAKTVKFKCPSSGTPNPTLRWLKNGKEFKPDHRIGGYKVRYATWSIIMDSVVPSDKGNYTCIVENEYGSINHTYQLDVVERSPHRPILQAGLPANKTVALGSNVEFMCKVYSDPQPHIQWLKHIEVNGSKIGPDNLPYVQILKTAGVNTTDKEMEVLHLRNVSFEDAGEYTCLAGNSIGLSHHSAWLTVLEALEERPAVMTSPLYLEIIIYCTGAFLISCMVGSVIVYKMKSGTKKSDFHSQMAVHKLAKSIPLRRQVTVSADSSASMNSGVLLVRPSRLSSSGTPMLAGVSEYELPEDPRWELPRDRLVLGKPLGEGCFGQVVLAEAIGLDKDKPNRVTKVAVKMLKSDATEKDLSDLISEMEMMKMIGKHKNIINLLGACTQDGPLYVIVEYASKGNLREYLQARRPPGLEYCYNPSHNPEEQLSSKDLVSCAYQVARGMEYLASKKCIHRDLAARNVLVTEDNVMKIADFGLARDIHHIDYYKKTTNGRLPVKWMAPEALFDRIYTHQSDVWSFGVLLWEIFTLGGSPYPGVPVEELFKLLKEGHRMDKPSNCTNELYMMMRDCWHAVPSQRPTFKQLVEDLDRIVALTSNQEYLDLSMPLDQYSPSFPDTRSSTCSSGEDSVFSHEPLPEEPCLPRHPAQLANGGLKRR
Sequence of CKD18 (Q07002 whole entry): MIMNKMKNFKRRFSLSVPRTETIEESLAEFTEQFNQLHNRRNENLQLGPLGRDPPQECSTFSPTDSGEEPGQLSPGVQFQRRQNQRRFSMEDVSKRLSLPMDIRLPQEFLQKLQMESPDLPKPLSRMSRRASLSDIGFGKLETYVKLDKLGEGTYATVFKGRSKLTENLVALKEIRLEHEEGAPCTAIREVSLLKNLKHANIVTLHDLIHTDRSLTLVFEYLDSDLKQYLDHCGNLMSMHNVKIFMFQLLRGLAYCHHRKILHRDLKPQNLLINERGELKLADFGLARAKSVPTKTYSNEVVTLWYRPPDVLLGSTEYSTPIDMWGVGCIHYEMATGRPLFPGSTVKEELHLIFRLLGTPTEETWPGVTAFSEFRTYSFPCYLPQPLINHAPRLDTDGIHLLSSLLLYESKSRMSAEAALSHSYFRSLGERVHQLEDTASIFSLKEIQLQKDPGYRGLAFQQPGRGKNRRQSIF
Sequence of CKD18 (Q8ND76 whole entry partner): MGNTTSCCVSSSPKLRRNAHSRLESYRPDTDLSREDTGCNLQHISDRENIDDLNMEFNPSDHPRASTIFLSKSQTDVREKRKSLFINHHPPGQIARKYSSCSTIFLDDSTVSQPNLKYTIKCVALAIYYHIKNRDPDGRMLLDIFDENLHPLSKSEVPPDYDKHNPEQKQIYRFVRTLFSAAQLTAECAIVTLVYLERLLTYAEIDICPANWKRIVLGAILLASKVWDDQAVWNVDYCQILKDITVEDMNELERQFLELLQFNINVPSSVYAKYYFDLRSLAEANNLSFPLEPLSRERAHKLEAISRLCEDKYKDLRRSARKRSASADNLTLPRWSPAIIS
Sequence of PIK3R3 kinase (P42336 whole entry partner): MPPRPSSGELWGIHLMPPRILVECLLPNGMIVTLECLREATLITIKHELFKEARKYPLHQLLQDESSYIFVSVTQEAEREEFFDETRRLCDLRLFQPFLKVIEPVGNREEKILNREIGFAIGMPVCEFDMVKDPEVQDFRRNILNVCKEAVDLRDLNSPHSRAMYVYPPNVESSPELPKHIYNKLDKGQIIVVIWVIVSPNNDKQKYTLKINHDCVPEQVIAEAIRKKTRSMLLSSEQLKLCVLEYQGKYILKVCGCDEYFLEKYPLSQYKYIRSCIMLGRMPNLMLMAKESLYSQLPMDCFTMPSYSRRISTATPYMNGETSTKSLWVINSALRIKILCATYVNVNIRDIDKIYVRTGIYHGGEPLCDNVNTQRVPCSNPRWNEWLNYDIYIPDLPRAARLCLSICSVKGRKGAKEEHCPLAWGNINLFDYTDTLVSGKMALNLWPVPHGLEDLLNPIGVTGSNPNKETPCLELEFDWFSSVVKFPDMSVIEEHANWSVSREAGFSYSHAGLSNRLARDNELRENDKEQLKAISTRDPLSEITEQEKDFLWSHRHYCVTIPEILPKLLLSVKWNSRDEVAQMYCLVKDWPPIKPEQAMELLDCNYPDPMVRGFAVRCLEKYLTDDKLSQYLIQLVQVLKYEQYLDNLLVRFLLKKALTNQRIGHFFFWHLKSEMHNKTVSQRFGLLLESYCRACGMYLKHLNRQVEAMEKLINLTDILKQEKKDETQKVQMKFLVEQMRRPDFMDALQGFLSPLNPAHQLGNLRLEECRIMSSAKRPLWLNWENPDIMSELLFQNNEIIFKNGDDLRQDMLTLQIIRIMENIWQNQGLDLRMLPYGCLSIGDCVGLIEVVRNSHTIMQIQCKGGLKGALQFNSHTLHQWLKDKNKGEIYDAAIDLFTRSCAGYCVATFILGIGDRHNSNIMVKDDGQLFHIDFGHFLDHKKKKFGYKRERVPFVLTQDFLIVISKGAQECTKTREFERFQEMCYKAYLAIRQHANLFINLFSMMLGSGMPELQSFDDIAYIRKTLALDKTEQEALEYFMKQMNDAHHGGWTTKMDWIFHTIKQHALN

YARAAARQARASPAARRA(pS)AILPG (YARAAARQARASPAARRA[pS]AILPG) [NiPp, Cell-permeant phosphopeptide mimetic of Niban: transduction domain … conjugated to the region surrounding serine 602 of Niban]
inhibition of FGFR1 [1]: inhibited
inhibition of PIK3R3 kinase [2]: inhibited
inhibition of CKD18 [3]: inhibited
endothelial function (percent relaxation to carbachol) after acidosis (normal saline) injury [4]: improved; also recorded: restores
